{
  "source": "paper doi:10.1101/2024.12.23.630085",
  "about": "“Accurate sequence-to-affinity models for SH2 domains from multi-round peptide binding assays coupled with free-energy regression” (bioRxiv, 2025)",
  "conditions_in_all_cases": "both partners purified",
  "key": {"c-Src SH2 domain": {"biological_target": "T1, c-Src SH2 domain (UniProt P12931-1 151-248, biotin (biotinylated SH2 domain of the selection))", "T1 construct": "SH2 domain of c-Src kinase; source: purified", "assay": "fluorescence polarisation; competition mode; unlabelled phosphopeptide against 30 nM FITC-Ahx-GDG-pY-EEISPLLL-NH2 and 122.745 nM c-Src SH2 (123.745 to 125.745 in three rows; Table S3)"}, "Grb2 SH2 domain": {"biological_target": "T2, Grb2 SH2 domain (UniProt P62993 60-152, biotin (biotinylated SH2 domain of the selection))", "T2 construct": "SH2 domain of the adapter protein Grb2; source: purified", "T2 sequence (P62993 60-152)": "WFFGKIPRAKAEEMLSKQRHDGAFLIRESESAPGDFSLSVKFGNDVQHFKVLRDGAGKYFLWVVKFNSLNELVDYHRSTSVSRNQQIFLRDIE", "assay": "fluorescence polarisation; competition mode; unlabelled phosphopeptide against 30 nM FITC-Ahx-FDDPS(pY)VNVQN and 123 nM Grb2 SH2 (Table S3)"}, "Lyn SH2 domain (121-228)": {"biological_target": "T3, Lyn SH2 domain (121-228) (human, UniProt P07948 121-228, biotin (on the AviTag))", "T3 construct": "source: E. coli C43(DE3) with BirA helper plasmid, purified (HisTrap, anion exchange, Ulp1 cleavage, SEC); not shown: His6-SUMO, N-terminal, cleaved; AviTag, C-terminal, kept", "T3 sequence (P07948 121-228)": "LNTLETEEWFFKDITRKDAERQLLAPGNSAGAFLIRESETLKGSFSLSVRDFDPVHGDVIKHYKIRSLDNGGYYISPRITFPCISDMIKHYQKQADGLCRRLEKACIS", "assay": "fluorescence polarisation; competition mode; unlabelled phosphopeptide against 30 nM FITC-Ahx-GDG-pY-EEISPLLL-NH2 and 106.5 nM Lyn SH2 (Table S3)"}, "Fyn SH2 domain (142-248)": {"biological_target": "T4, Fyn SH2 domain (142-248) (human, UniProt P06241 142-248, biotin (on the AviTag))", "T4 construct": "SH2 domain of human Fyn kinase, residues 142-248; source: E. coli C43(DE3) with BirA helper plasmid, purified (HisTrap, anion exchange, Ulp1 cleavage, SEC); not shown: His6-SUMO, N-terminal, cleaved; AviTag, C-terminal, kept", "T4 sequence (P06241 142-248)": "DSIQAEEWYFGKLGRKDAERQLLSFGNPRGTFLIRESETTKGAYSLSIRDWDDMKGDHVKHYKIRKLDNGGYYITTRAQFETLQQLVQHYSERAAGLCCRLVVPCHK", "assay": "fluorescence polarisation; competition mode; unlabelled phosphopeptide against 0.4 nM FITC-Ahx-GDG-pY-EEISPLLL-NH2 and 4.125 nM Fyn SH2, as printed (Tables S3 and S5)"}},
  "note": "Non-standard residues stand in square brackets, D forms with d. pY = N[C@@H](Cc1ccc(OP(=O)(O)O)cc1)C(=O)O",
  "data": [
    {"binder": "Ac-QKEAHH[pY]VNWRTG-NH2 (source: synthetic peptide (SynPeptide, China))", "note": "[Syn-G2-1 (synthetic)]", "values": [
      {"measurement": "Kd", "setting": "c-Src SH2 domain", "value": 9660, "unit": "nM"},
      {"measurement": "Kd", "setting": "Grb2 SH2 domain", "value": 31.8, "unit": "nM"}
    ]},
    {"binder": "Ac-QDINSL[pY]DVSRMG-NH2 (flank added to the 11-residue stretch (surmised: last residue of the library's constant GQSGQ); PLCG2, human, around pY753; flank added to the 11-residue stretch (surmised: first residue of the library's constant GGQSG); also called PLCγ2 pY753; source: synthetic peptide (SynPeptide, China))", "note": "[PLCG2 pY 753]", "values": [
      {"measurement": "Kd", "setting": "c-Src SH2 domain", "value": 12300, "unit": "nM"},
      {"measurement": "Kd", "setting": "Lyn SH2 domain (121-228)", "value": 11700, "unit": "nM"}
    ]},
    {"binder": "Ac-QNDGEI[pY]DDIADG-NH2 (flank added to the 11-residue stretch (surmised: last residue of the library's constant GQSGQ); SLAP-130, human, around pY771; flank added to the 11-residue stretch (surmised: first residue of the library's constant GGQSG); source: synthetic peptide (SynPeptide, China))", "note": "[SLAP-130 pY771]", "values": [
      {"measurement": "Kd", "setting": "c-Src SH2 domain", "value": 94, "unit": "nM"},
      {"measurement": "Kd", "setting": "Lyn SH2 domain (121-228)", "value": 96.8, "unit": "nM"}
    ]},
    {"binder": "Ac-QHKEDV[pY]ENLHTG-NH2 (flank added to the 11-residue stretch (surmised: last residue of the library's constant GQSGQ); PTPN6 (SHP1), human, around pY564; flank added to the 11-residue stretch (surmised: first residue of the library's constant GGQSG); also called SHP1 pY564; source: synthetic peptide (SynPeptide, China))", "note": "[PTPN6 pY564]", "values": [
      {"measurement": "Kd", "setting": "c-Src SH2 domain", "value": 909, "unit": "nM"},
      {"measurement": "Kd", "setting": "Lyn SH2 domain (121-228)", "value": 943, "unit": "nM"}
    ]},
    {"binder": "Ac-QEWRSQ[pY]EALKEG-NH2 (flank added to the 11-residue stretch (surmised: last residue of the library's constant GQSGQ); TRAF3IP3, human, around pY322; flank added to the 11-residue stretch (surmised: first residue of the library's constant GGQSG); source: synthetic peptide (SynPeptide, China))", "note": "[TRAF3IP3 pY322]", "values": [
      {"measurement": "Kd", "setting": "c-Src SH2 domain", "value": 6480, "unit": "nM"},
      {"measurement": "Kd", "setting": "Lyn SH2 domain (121-228)", "value": 3940, "unit": "nM"}
    ]},
    {"binder": "Ac-QAESRI[pY]DEILQG-NH2 (flank added to the 11-residue stretch (surmised: last residue of the library's constant GQSGQ); CD84, human, around pY296; flank added to the 11-residue stretch (surmised: first residue of the library's constant GGQSG); source: synthetic peptide (SynPeptide, China))", "note": "[CD84 pY296]", "values": [
      {"measurement": "Kd", "setting": "c-Src SH2 domain", "value": 28.1, "unit": "nM"},
      {"measurement": "Kd", "setting": "Lyn SH2 domain (121-228)", "value": 91, "unit": "nM"}
    ]},
    {"binder": "Ac-QPSTTE[pY]SEIKTG-NH2 (flank added to the 11-residue stretch (surmised: last residue of the library's constant GQSGQ); SIGLEC5, human, around pY544; flank added to the 11-residue stretch (surmised: first residue of the library's constant GGQSG); source: synthetic peptide (SynPeptide, China))", "note": "[SIGLEC5 pY544]", "values": [
      {"measurement": "Kd", "setting": "c-Src SH2 domain", "value": 282, "unit": "nM"},
      {"measurement": "Kd", "setting": "Lyn SH2 domain (121-228)", "value": 362, "unit": "nM"}
    ]},
    {"binder": "Ac-QDDQEV[pY]DDVAEG-NH2 (flank added to the 11-residue stretch (surmised: last residue of the library's constant GQSGQ); SLAP-130, human, around pY595; flank added to the 11-residue stretch (surmised: first residue of the library's constant GGQSG); also called SLAP-130 Y595; source: synthetic peptide (SynPeptide, China))", "note": "[SLAP-130 pY595]", "values": [
      {"measurement": "Kd", "setting": "c-Src SH2 domain", "value": 191, "unit": "nM"},
      {"measurement": "Kd", "setting": "Lyn SH2 domain (121-228)", "value": 240, "unit": "nM"}
    ]},
    {"binder": "Ac-QPIFEG[pY]ALPHAG-NH2 (SMILES CC[C@H](C)[C@H](NC(=O)[C@@H]1CCCN1C(=O)[C@H](CCC(N)=O)NC(C)=O)C(=O)N[C@@H](Cc1ccccc1)C(=O)N[C@@H](CCC(=O)O)C(=O)NCC(=O)N[C@@H](Cc1ccc(OP(=O)(O)O)cc1)C(=O)N[C@@H](C)C(=O)N[C@@H](CC(C)C)C(=O)N1CCC[C@H]1C(=O)N[C@@H](Cc1c[nH]cn1)C(=O)N[C@@H](C)C(=O)NCC(N)=O, flank added to the 11-residue stretch (surmised: last residue of the library's constant GQSGQ); ACTA1, human, around pY171; flank added to the 11-residue stretch (surmised: first residue of the library's constant GGQSG); also called ACTA1 pTyr Y171; source: synthetic peptide (SynPeptide, China))", "note": "[ACTA1 pY171]", "values": [
      {"measurement": "Kd", "setting": "Fyn SH2 domain (142-248)", "value": 47.3, "unit": "nM"}
    ]},
    {"binder": "Ac-QSLEKS[pY]ELPDGG-NH2 (SMILES CC(=O)N[C@@H](CCC(N)=O)C(=O)N[C@@H](CO)C(=O)N[C@@H](CC(C)C)C(=O)N[C@@H](CCC(=O)O)C(=O)N[C@@H](CCCCN)C(=O)N[C@@H](CO)C(=O)N[C@@H](Cc1ccc(OP(=O)(O)O)cc1)C(=O)N[C@@H](CCC(=O)O)C(=O)N[C@@H](CC(C)C)C(=O)N1CCC[C@H]1C(=O)N[C@@H](CC(=O)O)C(=O)NCC(=O)NCC(N)=O, flank added to the 11-residue stretch (surmised: last residue of the library's constant GQSGQ); ACTB, human, around pY240; flank added to the 11-residue stretch (surmised: first residue of the library's constant GGQSG); source: synthetic peptide (SynPeptide, China))", "note": "[ACTB pY240]", "values": [
      {"measurement": "Kd", "setting": "Fyn SH2 domain (142-248)", "value": 159, "unit": "nM"}
    ]},
    {"binder": "Ac-QSLEKS[pY]ELLDGG-NH2 (SMILES CC(=O)N[C@@H](CCC(N)=O)C(=O)N[C@@H](CO)C(=O)N[C@@H](CC(C)C)C(=O)N[C@@H](CCC(=O)O)C(=O)N[C@@H](CCCCN)C(=O)N[C@@H](CO)C(=O)N[C@@H](Cc1ccc(OP(=O)(O)O)cc1)C(=O)N[C@@H](CCC(=O)O)C(=O)N[C@@H](CC(C)C)C(=O)N[C@@H](CC(C)C)C(=O)N[C@@H](CC(=O)O)C(=O)NCC(=O)NCC(N)=O, flank added to the 11-residue stretch (surmised: last residue of the library's constant GQSGQ); ACTB, human, around pY240, natural variant P243L; flank added to the 11-residue stretch (surmised: first residue of the library's constant GGQSG); source: synthetic peptide (SynPeptide, China))", "note": "[ACTB pY240 P243L]", "values": [
      {"measurement": "Kd", "setting": "Fyn SH2 domain (142-248)", "value": 141, "unit": "nM"}
    ]},
    {"binder": "Ac-QSDQRR[pY]SLIDRG-NH2 (SMILES CC[C@H](C)[C@H](NC(=O)[C@H](CC(C)C)NC(=O)[C@H](CO)NC(=O)[C@H](Cc1ccc(OP(=O)(O)O)cc1)NC(=O)[C@H](CCCNC(=N)N)NC(=O)[C@H](CCCNC(=N)N)NC(=O)[C@H](CCC(N)=O)NC(=O)[C@H](CC(=O)O)NC(=O)[C@H](CO)NC(=O)[C@H](CCC(N)=O)NC(C)=O)C(=O)N[C@@H](CC(=O)O)C(=O)N[C@@H](CCCNC(=N)N)C(=O)NCC(N)=O, flank added to the 11-residue stretch (surmised: last residue of the library's constant GQSGQ); CLIP2, human, around pY972; flank added to the 11-residue stretch (surmised: first residue of the library's constant GGQSG); source: synthetic peptide (SynPeptide, China))", "note": "[CLIP2 pY972]", "values": [
      {"measurement": "Kd", "setting": "Fyn SH2 domain (142-248)", "value": 78.5, "unit": "nM"}
    ]}
  ]
}
